Common to all, as to test: LC-MS product quantification, Lineweaver-Burk
Type in all cases: biochemical, Populus trichocarpa

Data set [1] concerns CC(C)(COP(=O)(O)OP(=O)(O)OC[C@H]1O[C@@H](n2cnc3c(N)ncnc32)[C@H](O)[C@@H]1OP(=O)(O)O)[C@@H](O)C(=O)NCCC(=O)NCCSC(=O)c1ccc(O)cc1. The note with it: saturating sinapyl alcohol, 50 mM sodium phosphate pH 6, 1 mM DTT, wheatgerm cell-free enzyme. An excerpt:
(§1) LC-MS product quantification, Lineweaver-Burk on pHBMT1 (Potri.001G448000)

The subject of another data set is COc1cc(/C=C/CO)ccc1O. The note with it: saturating p-hydroxybenzoyl-CoA, 50 mM sodium phosphate pH 6, 1 mM DTT, wheatgerm cell-free enzyme.
Text: as §1

Another data set has as its system COc1cc(/C=C/CO)cc(OC)c1O. The conditions noted are these: saturating p-hydroxybenzoyl-CoA, 50 mM sodium phosphate pH 6, 1 mM DTT, wheatgerm cell-free enzyme.
Text: as §1

Turning to “pHBMT1 (Potri.001G448000) (Populus trichocarpa)”, in data set [1], the Km amounted to 448 ± 21 µM, the kcat is 0.18 ± 0.03 s⁻¹ and the catalytic efficiency (kcat/Km) stood at 400 M⁻¹ s⁻¹. Further, in the data set with COc1cc(/C=C/CO)ccc1O, the Km is on record as 954 ± 411 µM and the kcat was found to be 0.1 ± 0.02 s⁻¹. Further, in the data set on COc1cc(/C=C/CO)cc(OC)c1O, the Km was 300 ± 72 µM, the turnover number (kcat) turned out to be 0.13 ± 0.01 s⁻¹ and the kcat/Km was 490 M⁻¹ s⁻¹.

By Km is commonly meant the substrate concentration at which the rate is half of its maximum. A word on the kcat: it is the number of substrate molecules converted per active site and unit of time at saturation. Broadly, the kcat/Km is the second-order rate constant that governs catalysis at low substrate concentration.

Source of the values: PMC8825253, “pHBMT1, a BAHD-family monolignol acyltransferase, mediates lignin acylation in poplar” (Plant Physiology, 2021).
